Consider one molecule from article PMC12653191 (Journal of Fungi, 2025).

The target of the assay is T1, Candida glabrata Pbn1 (C. glabrata ATCC 2001, UniProt Q6FX62 1-416, N-glycosylation at N35, N319 and N365).
T1 construct: Pbn1, auxiliary subunit of GPI mannosyltransferase I, Candida glabrata ATCC 2001, UniProt Q6FX62, full length (416 amino acids); residues 2-408 are modelled in the structure; also called auxiliary subunit of GPI-MT-I; source: S. cerevisiae INVSc1, co-expressed with Gpi14, purified (Strep-Tactin, SEC); not shown: Twin-Strep II, N-terminal, kept
T1 sequence (looked up): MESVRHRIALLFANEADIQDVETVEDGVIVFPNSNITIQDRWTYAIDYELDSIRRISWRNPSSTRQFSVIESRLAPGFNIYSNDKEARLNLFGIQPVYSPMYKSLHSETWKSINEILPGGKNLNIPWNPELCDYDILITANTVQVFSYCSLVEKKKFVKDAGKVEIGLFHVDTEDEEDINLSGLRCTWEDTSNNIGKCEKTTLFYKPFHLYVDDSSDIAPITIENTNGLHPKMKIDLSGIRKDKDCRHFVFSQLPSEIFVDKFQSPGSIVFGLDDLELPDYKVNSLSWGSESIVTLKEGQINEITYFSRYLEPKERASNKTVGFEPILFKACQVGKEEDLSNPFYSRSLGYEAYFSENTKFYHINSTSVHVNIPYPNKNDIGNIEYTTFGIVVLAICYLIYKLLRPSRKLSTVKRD
The assay can be described thus: cryo-EM structure; Gpi14-Pbn1 complex co-expressed in S. cerevisiae, purified by Strep-Tactin on Pbn1 and SEC in 20 mM Hepes pH 7.4, 150 mM NaCl, 0.02% GDN; ~22 mg/mL; endogenous Dol-P-Man bound. As to conditions: both partners purified.

B1: Candida glabrata Gpi14 (enzyme, C. glabrata ATCC 2001, UniProt Q6FXQ5 1-431, looked up)
chain: MFKLGTIGLLSLAVLLRIAFFLFGVYQDEHFTVKYTDIDYQVFNDAAWFVAHRKSPYNRDTYRYTPLLSWLLLPNHMIPWFHFGKLIFVLCDLATGVLILQMLKKLKSKYRYGTDRMTIMAAIWLLNPMVITISTRGNAESVLCFLILSFLYCFLCEQYLLGGLLFGLSIHFKIYPIIYALPIAIYVAAAHYNKTQSVFKSSFKLFLVGFSTLIVLILLTVFMYMLYGDKFIDQTYLYHIYRTDHRHNFSVWNMLLYFNSALPKTSELSKFVFLPQMIIVLAISLTQLRRPSSFPLLCNVLFLETFAFVTFNKVCTSQYFIWYLIFLPFVLYNTRISMRRGIVMLVVWVATQALWLRQGYLLEFEGQNVFYPGLFCASVGFFVSNAWILGQFIEDTIIQNDYVYRIEPSESRSKDSAVIDKPAIAKTEKAE
notes: Gpi14, GPI mannosyltransferase I catalytic subunit, Candida glabrata ATCC 2001, UniProt Q6FXQ5, full length (431 amino acids); residues 2-408 are modelled in the structure; also called catalytic subunit of GPI-MT-I; source: S. cerevisiae INVSc1, co-expressed with Pbn1, purified (Strep-Tactin via Pbn1, SEC)
As for B1, the “stoichiometry N” value was 1.
